We go through 22 sequences from a protein production outcome set (Wang et al. 2014).
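Note: failed if final PepcDB status was selected cloned or expressed and not failed if soluble or beyond.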

The data set can be described thus: label from the status in PepcDB records.
On to “MIIKGRAHKFGDDVDTDAIIPGPYLRTTDPYELASHCMAGIDENFPKKVKEGDVIVAGENFGCGSSREQAVIAIKYCGIKAVIAKSFARIFYRNAINVGLIPIIANTDEIKDGDIVEIDLDKEEIVITNKNKTIKCETPKGLEREILAAGGLVNYLKKRKLIQSKKGVKT”, for which the protein production entry is recorded as “not failed”. The entry for “MACEGRTMISDTYKVRVNLGLCALAAAITLAGCAGLPDQRLANEALKRGDTALAERNYKALADLGYSEAQVGLADIKVATRDPSQIKEAEATYRAAAATSPRAQARLGRLLVAKPDSTQAEREEAETLLKQAAKQGQSNTLIPLAMLYLSYPQSFPKVNAQQQIDQWRAAGNPEAGLAQVLLYRTQGTYDQHLGEVEKICKAALNTTDICYVELATVYQKRGQADQQAALLGQLKSAYARGAVPATRVDSVARVLADRSLGQTDEKTAKELLEQVAPANPASWVSLAQLVYDFPELGDTDQLMAYIDKGREAEQPRAELLLGRLYYEGKTLPADAQKAEQHLQAAAEAGEISAHYYLGQLYRRGYLGNVEPQKAVDHLLAAARGGQNSADYALAQLFSEGHGIRPQPGNAWVFAQLSQANPTPQSAELLQQLDQQLTPDQRNQAQQLLDQEKRARGSLAQGANSTLALEALQDDEKEVDGEDSL” is “failed”; for “MFRAMHLSLLGCLLGTSGCHGLPPAPPAPSAAVGNYGEVIDYLQRHIRREMERQDVPGLALALVDDQQLVWARGFGYADRQHRINASEHTAFHAGDLSKLLIASATLQLAERGQLSLDAPLQDTLREFYVRSRFHADQSEADRAITFRRLLSHQSGLPGEHLPPLFGERPNSLGQLPAKVSGVWLSNPPGTQVAHSNLGYELVGAAIERNTGKHFEQHMREHLLDPLQMTRSSFARNALPQAQRAHGYSGGGRPGSASDLPVNDLWSSPVDLSRFVRMLFANGRHKERQLLRKHSVEEMFRQQNAGNALDFDCQVGLAWFLSPCGSAPLEGGIRHYEYASATPGFSAHLILLPEQRLAAIVMSNADDSGSLTASLARQAASLMLQVKQGARRPAVQPTPARAPALEVPSPEDRRQLYGRYATRQGQIRLYERRGRLYADFGEQRVELLRDTSGWLQMRKRLLGFWPVGVDSAGQLQLDVVSYGQRRILVSRRHDQTAYLGERIEPTSLPQAWTEAVGTYRVASTGRHSYLNGLSIRIEDGFLLVRGQAGGTRSGEFILQPIDSAHAVLAGSGQGLGDTFSRDFDGLNALGYRFAQQDTKARPWLQRKESP” it is “failed”; for “MAHHHHHHMADQNPDLKVEEALKGADIKLLLIDFDGTLFVDKDIKVPSENIDAIKEAIEKGYMVSICTGRSKVGILSAFGEENLKKMNFYGMPGVYINGTIVYDQIGYTLLDETIETDVYAELISYLVEKNLVNQTIFHRGESNYVTEDNKYADFLQKMYSENRSIIIRHNEMLKYRTMNKLMIVLDPSESKTVIGNLKQKFKNKLTIFTTYNGHAEVTKLGHDKYTGINYLLKHYNISNDQVLVVGDAENDIAMLSNFKYSFAVANATDSAKSHAKCVLPVSHREGAVAYLLKKVFDLKK” it is “not failed”. With “MALPIIVKWGGQEYSVTTLSEDDTVLDLKQFLKTLTGVLPERQKLLGLKVKGKPAENDVKLGALKLKPNTKIMMMGTREESLEDVLGPPPDN”, the protein production result is on record as “failed”. Regarding “MTTNRYMKGIMWAMLASTLWGVSGTVMQFVSQNQAIPADWFLSVRTLSAGIILLAIGFVQQGTKIFKVFRSWASVGQLVAYATVGLMANMYTFYISIERGTAAAATILQYLSPLFIVLGTLLFKRELPLRTDLIAFAVSLLGVFLAITKGNIHELAIPMDALVWGILSGVTAALYVVLPRKIVAENSPVVILGWGTLIAGILFNLYHPIWIGAPKITPTLVTSIGAIVLIGTIFAFLSLLHSLQYAPSAVVSIVDAVQPVVTFVLSIIFLGLQVTWVEILGSLLVIVAIYILQQYRSDPASD”, the protein production entry is given as “failed”. The value for “MMQVQYIIWLSCCFKRMNKDREFTESKTIKQNTKMKKRILGAALLVAIAVAAGWNYNQSRNEVPLSDLALANAEALAQGETDWGNCTYYGCIVDFSSTCNVYSSIWGNLIKVCPNMRG” was “failed”. Turning to “MTGFAPQAGLPSHSVQVADHFDGNSPRGSPMSSGGHPVDRNRGLQPQKEAFSGPAAGKPFHPQALSKYSRHYSPEDELSAEAQPIAAYKIVSQSNKQLLAGSVSVTSLSSRTTELATADPFALAPFPSKAGKQKP”, the protein production result was “failed”. Take “MAAAPWYIRQRDTDLLGKFKFIQNQEDGRLREATNGTVNSRWSLGVSIEPRNDARNRYVNIMPYERNRVHLKTLSGNDYINASYVKVNVPGQSIEPGYYIATQGPTRKTWDQFWQMCYHNCPLDNIVIVMVTPLVEYNREKCYQYWPRGGVDDTVRIASKWESPGGANDMTQFPSDLKIEFVNVHKVKDYYTVTDIKLTPTDPLVGPVKTVHHFYFDLWKDMNKPEEVVPIMELCAHSHSLNSRGNPIIVHCSAGVGRTGTFIALDHLMHDTLDFKNITERSRHSDRATEEYTRDLIEQIVLQLRSQRMKMVQTKDQFLFIYHAAKYLNSLSVNQ”: the protein production result is recorded as “failed”. “MWLYYLQVVMDMRVYVEGYGCVLNTADTEIIKNSLKKHGFEVVNNLEEADIAIINTCVVRLETENRMIYRINELKNLGKEVVVAGCLPKALKNKVKGFLHIYPREAHKAGEILKNYVEKHYRMPYIEEDINKTLYKKLDYLKPSLITPLPICEGCIGNCSYCIVKIARGGLISYPREKIVNKAKELINKGAKCLLITAQDTACYGFDIGDNLANLLNELTQIKGEFIMRVGMMHAKNAELILDELIEVYQNEKVGKFLHLPLQSGDDEILKRMKRGYTVDEFKDIVNEFRRKIKNLCFTTDIIVGFPGETEEQFQNTLEVLRELKPDYIHGAKYSQRKGTEAAKMKQIDTKIRKRRSEILDKLRRELSYLNNKKYIGKAMKVLVLDEGKGYTDNFKVVKFEGGEVGEFRKVKITDAKTFGLKGELILLEHHHHHH”: the protein production entry was “not failed”. The entry for “MTRSEQNPVLFLAPDNVLWLLYTAQKSGNQDTAIVRYRQSTDLGATWGEIGTLLDQPGTFIRQPITVLENGDWLLPVFYCRVQPGEKWVGNDDDSAVKISSDQGKTWREYPVPNSTGCVHMNITPLQDGTLLALYRSRWADFIYQSRSTDGGKTWSEPVATDLPNNNSSIQVTTLKNGHLALVFNHMSAADATDRRLSLYDEIEDEEDKASGAKMPEVQAGDRSAFWGAPRAPMTLAISEDGGKSWPYQRNIEVGDGYCMTNNSTEKLNREFSYPSVKQAPDGKLHVAFTYFRQAIKHVVVSEEWVKAGLEHHHHHH” is “failed”. The value for “ILTENTPYFEQLSVPQRSVGRIIGRGGETIRSICKASGAKITCDKESEGTLLLSRLIKISGTQKEVAAAKHLILEKVSEDEELRKRIAHSA” was “not failed”; that for “MSDTLYIKMDQAVEITKKQVTVGDVAKLQCKNKNITNRLKSMKLLEDTTKGKKRYIVSIMKIIEMADQTFQNVDIQNIGETECVVEFKTPKKDDGPM” was “not failed”. Consider “MRSRPTEGNLLVSIGIPFLNPGPYLDLAVRSVFAQTYLNWELILVDDGSTDGSYERAVAIQDPRVRVLRDGQNKGLPARLNEIVRLAKGELVARMDADDAMHPLRLEKQVGFLQANPELDGVTTGAYLIDAEDRPIALLPGRQPSAQEVLARGGFLHPSLLARKSWFEAHPYSLDYPRAEDRELFVRTFKTSRLHVLSEPLYFYRWFGVPRGKTLRIGYRSERKVMWKYGPNLVGWGPSLRLIALSFGKELLTWFLEWTHLEKGFQTRRAFQPLLEMDQREALRTLKVIRETCVPGWDLEHHHHHH”, for which the protein production result was “failed”. “STSPTATKYDVFLSFRGVDTRRNFISFLYKEFVRRKIRTFKDDKELENGRRISPELKRAIEESKFAVVVVSVNYAASPWCLDELVKIMDFENKGSITVMPIFYGVDPCHLRRQIGDVAEQFKKHEAREEDHEKVASWRRALTSLASISGDCSSKCEDEAKLVDEIADKISKNLMTVTTISNGKNLVGIDTHMKALNKKLDLNSNKSLRVVGIWARGYNGRSALAKYVYQDICHHFDSHCFLGSVKRISQGRHLSHLHEEFLIRIQGSKHNLKDQKVLLVADDVYKLEQLDALAEDFNGFGPGSVVIITTQDKHLFVSAGIKLVYEVELLKFQKVCELFRQFAFKKRDISAAVKLVYYRATNWLGCLSGRSG”: the protein production entry is recorded as “failed”. In the case of “MNLFKKIIFGAAVMGLMAAGDASAAGKIVIDGSTTVGPIAKAFAAYFHKKTGIDVTVSESGSGNGAKSLINKTCDIADMSRPMEPKEIAAAKANGVNPVEHVVALDGLSMIVHPSNPVAKLTTAQIHDIYLGKITNWKQVGGPNAQIVFVQRESNSGTQECFEKLVMKDDKIAPAAETAASNGAVKSRVASTPNAIGFVGLGFVDKSVKPLIVNGVKPSIATVRNGSYVLHRPLFMYTNGQPKGDVAKFINLPKTPDGKRMISELGFVNK”, the protein production result is given as “failed”. The value for “MEELFCIGCGIQIQTEDKEKAGFTPAAALKKGMETGELYCQRCFRLRHYNEITDVHITDDEFLRLLHEVGDSDALVVNVIDIFDFNGSIIPGLSRFISGNDVLLVGNKKDILPKSVKDGKVTQWLTERAHEEGLRPLDVMLTSAQNKYAIKDLIGRINELRNGRDVYVVGVTNVGKSTLINAIIQEITGNKDVITTSRFPGTTLDKIEIPLDDGTFIFDTPGIIHRHQMAHYLSPKELKIVSPKKEIKPKTYQLNPEQTLFLGGLARFDFINGERQGFTAFFDNQLELHRTKLAGADAFYDKHVGTLLTPPDKKELTAFPKLVRHEFTIDQKMDIVFSGLGWIRVNGQKDSKAIVAAWAPEGVAVIVRKAIILEHHHHHH” was “not failed”. The entry for “TQIQNRTRRAKRALAARGLTEAVTWSFISKPFAEAFGGGQPELALANPIASDLSDMRPSLLPGLIAAAQANADRGSPDLALFEVGQVFKGDRPQDQFMAASGVRRGVASSAGLGRHWSGSAQATALDAKADAFAVLAAAGAPMAGLQIATNKLPAWLHPGRSGAIQIGPQNVLGYFGELHPRVLEQLGADGPLVAFEVILEKIP” is “not failed”.

As to “MTRAKDRLSAVQVKQSPAGKYADGGGLWLVKSSKDTGKWVLRAVVHGRRREMGLGSVSDVGLAEARKSADKWRTVVRAGGDPIKERARQKREAARNLHLLKHVAEDCFDAIKGNLRGQGKAGRWFSPLELHVLPKLGKVPVADLDQVDIRDTLKPLRDTKFETMRKALNRLDMVVRHAAALGLDVDTQVVDKAKALIGASQHKAVNIPAMPWHEVPGFYQSLSVGSVTHLALRLLILTGVRSRPLRFLRVDHIAGDVWTIPADMMKGREGATGDFRVPLSKEALAVIEQAKRHARDGFLFPSLRRGVVSDMTLSRYMERRKLTARPHGFRSSLRDWLAECTDAPHEVAETVLGHKVGGAVERAYRRTDFIDQRAKLMERWADHCKVVQLVSAV”, the protein production entry is “failed”.

Regarding “MALVDDGSQPLVSVIIASYNHEKYIEASIASVAAQTYRNVELLVVDDGSSDGSVELLRGLQAKYGFDLRVQQNQGLSRTLNEAITRARGNLIVPFGSDDIMLPQRLEKQVAHMWDKPEVGICAGNIEIIDSNGRVMPGKEQRKRDLPFRRLDFDDLFLDRKPGPMAPTLMFRREALEKVGGFDPDIRLEDVYIELAVTKAGYVIDILGEVLAQYRKHPTNTYKNARFMVDNVFKTYSQFSDHPDYEQVIMRFRNSMFLKCSNRDKVLARELLSGLPLKYWNEKTFRGIARLFFS”, the protein production result was “failed”.

For the sequence “MSVNPFQTMRARYFLIVFALLTVVARASNELIENTFHMQNSTFINILIFYILPITWIYFAYKKHRVAFSLFINRNETFNLVQVLYITIMLCVFSYGYLILYMYSFAWITPTFIMNALREPIMDSTGGYVYQVIMVVFIAPIIGEFVFRGFLLQRFAAKWGTSIAIIVVAILFALLHVDFLGAIVFSVVLSIVYIRTNSLLMPIAIHMLNNAFVIGASFLINKEEIMSFADFSNYTTFFPGLIIFITGLNLVLIFLFVNRKYWSKEMPAIYVEQEKSFSDVVGSK”, the protein production result is recorded as “failed”.

As for “MDDVQVERILQNPKFKKMVSKKATLSWTLTIIMLIVYVGFMLLVGYNKEFLMSSFSGGVTTWGIPLGLGIIVLSFVLCGVYSYIANNTLDQLNEEALREVENITHEKGLH”, the protein production result is “failed”.
